Measured values reported in US20210230292A1 (DIATHEVA S R L, published 2021).

T1: human CD99ecd/GST (human, UniProt P14209 23-122)
T1 construct: Expressed in E. coli BL21(DE3), purified on Glutathione Sepharose; also called CD99ecd/GST antigen; recombinant CD99; not shown: glutathione-S-transferase as encoded by vector pGEX-2T (GE Healthcare); CD99ecd fused downstream of it through the BamHI
T1 sequence: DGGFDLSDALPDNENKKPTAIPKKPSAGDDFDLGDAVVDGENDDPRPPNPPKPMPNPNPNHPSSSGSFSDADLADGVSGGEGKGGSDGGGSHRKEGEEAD

B1: C7IgG4 (antibody)
heavy: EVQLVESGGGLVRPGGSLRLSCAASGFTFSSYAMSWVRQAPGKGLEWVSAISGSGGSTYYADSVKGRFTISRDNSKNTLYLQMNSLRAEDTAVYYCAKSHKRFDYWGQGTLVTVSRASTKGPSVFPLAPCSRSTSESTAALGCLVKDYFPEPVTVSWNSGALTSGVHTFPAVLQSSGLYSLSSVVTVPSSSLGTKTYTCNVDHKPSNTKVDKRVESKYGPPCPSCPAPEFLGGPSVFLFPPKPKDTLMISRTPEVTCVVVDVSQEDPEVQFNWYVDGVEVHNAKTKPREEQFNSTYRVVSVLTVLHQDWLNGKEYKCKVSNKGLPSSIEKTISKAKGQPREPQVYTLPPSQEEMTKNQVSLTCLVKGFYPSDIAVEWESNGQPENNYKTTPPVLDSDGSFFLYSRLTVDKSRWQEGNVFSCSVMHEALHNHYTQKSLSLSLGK
light: SSELTQDPAVSVALGQTVRITCQGDSLRSYYASWYQQKPGQAPVLVIYGKNNRPSGIPDRFSGSSSGNTASLTITGAQAEDEADYYCNSSFPRTSSVVFGGGTKLTVLGQPKANPTVTLFPPSSEELQANKATLVCLISDFYPGAVTVAWKADGSPVKAGVETTKPSKQSNNKYAASSYLSLTPEQWKSHRSYSCQVTHEGSTVEKTVAPTECS
notes: VH and VL of scFvC7 fused to human IgG4 constant regions; produced in Expi293F cells; also called IgG4wt; C7IgG4 wt
B2: C7IgG1 (antibody)
heavy: not shown
light: B1 light
notes: VH and VL of scFvC7 fused to human IgG1 constant regions; produced in Expi293F cells

Molecular target: T1, human CD99ecd/GST
Assay: competitive ELISA (Rath 1988), CD99ecd/GST coated and soluble CD99ecd/GST as inhibitor
Procedure: The binding affinity, expressed as the dissociation constant (kd) of scFv C7, C7dAbd, C7IgG4 and C7IgG1 for CD99, was determined by analysing the saturation of binding at equilibrium with a competitive ELISA assay according to the procedure described in Rath S 1988 with small variations. […] For this purpose, 96-well plates were sensitized by distributing 500 ng/well of CD99ecd/GST diluted in 0.5M carbonate buffer, pH 9.6, and incubating ON at 4° C. After 3 washes with PBS supplemented with 0.05% V/V of Tween20, the plates were blocked with a 1% W/V solution of BSA in PBS (PBSB), pH 7.4, for 60 min. at 37° C. After washing, the plates were incubated for 1 hour at 37° C. with serial dilutions of C7 (from 200 μg/ml to 0.03 μg/ml in triplicate) diluted in PBSB and dispensed (100 μl/well). The plates were incubated at 37° C. for 90 minutes. After washing a dilution of polyclonal anti-scFv diluted 1:500 in PBSB was dispensed, 100 μl/well, and incubated for 60 minutes at 37° C. […]
A competitive ELISA assay was then set up. […] The scFvC7 and C7 diabody signal was determined by dispensing, in a first step, a polyclonal anti-scFv antibody generated in rabbits immunized with scFvC7 and diluted 1:500 v/v in PBSB and subsequently with an anti-rabbit HRP diluted 1:1000 v/v. […]

Binder	Kd [µM]
B1	0.00586
B2	9
